# T1: cynomolgus IL-13Rα1.ECR, N-terminal FLAG-tagged fusion protein (cynomolgus macaque)
# T1 sequence: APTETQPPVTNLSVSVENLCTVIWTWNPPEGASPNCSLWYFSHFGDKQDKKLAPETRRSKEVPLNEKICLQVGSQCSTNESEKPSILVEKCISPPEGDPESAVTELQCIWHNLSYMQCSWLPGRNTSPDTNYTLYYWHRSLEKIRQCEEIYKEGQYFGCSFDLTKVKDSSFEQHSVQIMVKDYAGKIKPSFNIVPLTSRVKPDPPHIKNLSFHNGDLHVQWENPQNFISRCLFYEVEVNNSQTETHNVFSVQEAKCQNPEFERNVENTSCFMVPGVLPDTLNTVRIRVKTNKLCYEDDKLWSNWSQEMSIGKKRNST
# B1: murine antibody 1D9 reported in WO 03/080675 (ECACC deposit 03032101) (antibody, from another filing, V domains shown)
# VH: EVKLVESGGGLVKPGGSLKLSCAASGFTFSGYGMSWVRQTPEKRLEWVATISGLGGYTYYPDSVKGRFTISRDNAKNTLYLQMSSLRSDDTAFYYCARRFYGDYVGAMDYWGQGTSVTVSS
# VL: DILMTQAAFSNPVTLGTSASISCRSSKSLLHSNGITYLYWYLQKPGQSPQLLIYQMSNLASGVPDRFSCSGSGTDFTLSISRVEAEDVGFYYCAQNLELPFTFGSGTKLEIE
# Legend:
# [1] = biological target: N-terminal FLAG-tagged fusion protein including most of the extracellular region of human IL-13Rα1 (human) (UniProt P78552); assay: BIACORE, receptor ECR immobilized on CM5 chip, mAb in solution
# [2] = biological target: T1, cynomolgus IL-13Rα1.ECR, N-terminal FLAG-tagged fusion protein (cynomolgus macaque); assay: as above
binder,measurement,setting,value
B1,Kd,[1],0.207 nM
same,Kd,[2],0.247 nM

# — patent US20110052597A1
